Results published in patent US10233249B2, “Antibodies and methods for treating estrogen receptor-associated diseases” (BEIJING SHENOGEN PHARMA GROUP LTD., priority 2013, dated 2019).

Columns and labels:
[1] = target: T1, ER-α36 expressed on cell surfaces of MCF7 cells (Homo sapiens, UniProt P03372); experiment: FACS analysis of binding to cell surface ER-α36; conditions: mouse IgG2b isotype control
T1 construct: endogenous in cells; host or cells: K562, MCF7, SKBR3, MHCC97H
T1 sequence (P03372 1-310 isoform P03372-4): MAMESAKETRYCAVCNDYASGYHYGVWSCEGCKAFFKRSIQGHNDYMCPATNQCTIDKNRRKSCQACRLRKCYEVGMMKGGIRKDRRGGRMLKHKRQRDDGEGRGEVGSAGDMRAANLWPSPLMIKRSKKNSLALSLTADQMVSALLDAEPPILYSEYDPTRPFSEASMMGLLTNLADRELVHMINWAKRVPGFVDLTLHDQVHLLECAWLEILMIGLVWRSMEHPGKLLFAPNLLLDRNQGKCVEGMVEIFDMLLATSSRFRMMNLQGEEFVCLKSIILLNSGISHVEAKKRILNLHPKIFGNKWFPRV
Method: (§1) Also examined were the binding of SNGmB1 to a series of human cancer cell lines including K-562 cell, a cell line derived from chronic myeloid leukemia patient; MCF7: a breast cancer cell line expressing both ER-α66 and ER-α36; SKBR3 (ATCC): a breast cancer cell line expressing high levels of HER2; and MHCC97H (ATCC): a highly metastatic hepatocellular carcinoma cell line.
(§2) These cell lines (K562, MCF7, SKBR3, MHCC97H) were cultured in their respective medium to 90% confluence and then the cells were washed with PBS, followed by pretreatment with 0.5 mM EDTA (adherent cell lines) to facilitate removal from substrate. The cells are then collected and centrifuged at 2500 rpm for 5 minutes at 4° C. After counting the cell number, the cells were then resuspended in the block buffer (10% normal goat serum, Invitrogen) to a final concentration of 5-10×10^6 cells/ml, and 100 μl of cells (5×10^5) were transferred to a 1.5 ml EP tube for staining. All those tubes (cells in block buffer) were then laid in a revolver (Grant) for 30 minutes at 4° C. After that the cells were centrifuged at 2500 rpm for 5 minutes at 4° C., the supernatant was discarded, 100 μl of the primary antibody was then added to (1-30 μg/ml final concentration, SNGmB1 or mouse IgG2b isotope control) and incubated in a revolver at 4° C. for 1 hr. The cells were then collected by centrifugation at 2500 rpm for 5 minutes at 4° C. and washed 2 times with PBS solution. The goat anti mouse IgG (H+L) FITC secondary antibody (Invitrogen) were then added at a dilution range of 1:400-800 followed by incubation in a revolver at 4° C. for 1 hr and kept in dark. Following this incubation, free antibody was the removed by washing the cells twice with PBS and the cells were then fixed in 1% paraformaldehyde at room temperature for 10 min and before resuspending the cells in 200-400 μl PBS with 5 μl 7-AAD (BD Biosciences) added for final flow cytometric analysis.
(§3) In FIG. 5A, the “Geom. Mean” refers to Geometric mean fluorescence intensity. […] The cell line was incubated with the SNGmB1 antibody and the binding was tested, according to the similar procedure described above. Mouse IgG2b was used as isotype control.

[2] = target: T2, ER-α36 expressed on cell surfaces of K562 cells (Homo sapiens, UniProt P03372); experiment: FACS analysis of binding to cell surface ER-α36; conditions: 100, 20, 4, 0.8, 0.16, 0.032 μg/ml; mouse IgG2b isotype control
T2 construct: endogenous in cells; host or cells: K562, MCF7, SKBR3, MHCC97H
T2 sequence (P03372 1-310 isoform P03372-4): T1 sequence (P03372 1-310 isoform P03372-4)
Method: as §1, §2, §3

[3] = target: T3, ER-α36 expressed on cell surfaces of MHCC97H cells (Homo sapiens, UniProt P03372); experiment: FACS analysis of binding to cell surface ER-α36; conditions: mouse IgG2b isotype control
T3 construct: endogenous in cells; host or cells: K562, MCF7, SKBR3, MHCC97H
T3 sequence (P03372 1-310 isoform P03372-4): T1 sequence (P03372 1-310 isoform P03372-4)
Method: as §1, §2, §3

[4] = target: T4, ER-α36 expressed on cell surfaces of SKBR3 cells (Homo sapiens, UniProt P03372); experiment: FACS analysis of binding to cell surface ER-α36; conditions: mouse IgG2b isotype control
T4 construct: endogenous in cells; host or cells: K562, MCF7, SKBR3, MHCC97H
T4 sequence (P03372 1-310 isoform P03372-4): T1 sequence (P03372 1-310 isoform P03372-4)
Method: as §1, §2, §3

[5] = target: T5, biotinylated GV27 peptide (ER-α36) (Homo sapiens, UniProt P03372); experiment: Competition ELISA; type: binding
T5 sequence (P03372 284-310 isoform P03372-4 limits assumed): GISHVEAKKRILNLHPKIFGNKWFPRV
Method: The antigen (biotinylated GV27 peptide) was added along with different amount of the competing mouse antibody, the ELISA plates were then allowed to incubate for equilibrium before wash. Streptavidin-HRP (Sigma, S2438, 1:5000) and TMB substrate (Biopanda, China) were added and OD450 was measured on a plate reader. IgG were tested in parallel as control antibody.

[6] = target: T6, ER-α36 (Homo sapiens, UniProt P03372); experiment: Biacore binding affinity of chimeric and humanized antibodies (Example 9)
T6 sequence (P03372 284-310 isoform P03372-4): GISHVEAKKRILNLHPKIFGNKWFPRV
Method: The humanized antibodies were purified and characterized using ELISA and Biacore for binding analysis.
The humanized antibodies were tested for their binding affinity to ER-α36.

[7] = target: T6, ER-α36; experiment: ELISA binding specificity of SNGmB1; set-up: made in house; host or cells: E. coli BL21 (DE3); conditions: plate coated at 1 μg/ml, antibody 0.004-10 μg/ml
Method: The binding specificity of SNGmB1 was assessed using ELISA assay. Five different proteins were used to coat the assay plate at 1 μg/ml. After extensive blocking, the SNGmB1 antibody of different concentrations (10, 2, 0.4, 0.08 and 0.016, 0.004 μg/ml) was added to the assay plate and incubated for 1.5 hours, followed by detection of complex formation using HRP (horse radish peroxidase) labeled anti-mouse IgG Fc (Invitrogen). An example of the data was shown below in FIG. 3. […] The key epitope residues in ER-α36 F domain for SNGmB1 binding have been mapped using both PepScan and Alanine Scan (see Example 5).

[8] = system: K562 cells; experiment: Internalization analysis by surface fluorescence quenching (FACS); type: cell-based, human; conditions: 37° C., peak by 24 hours
Method: The % internalization=(Qn-Qo)/(Nn-Qo); Qn=MFI (Mean Fluorescence Intensity) for a sample at a specific time point, after quench; Nn=MFI for a sample taken at a specific time point, no quench; Qo=MFI for sample incubated only on ice at 0 hour, after quench.
As the development of antibody drug conjugate relies on the carrier antibody to be internalized to deliver the chemotherapeutic agent into the tumor cells, the ability of SNGmB1 being internalized by K-562 cells was also assessed.
K562 cells were first cultured in normal IMDM medium for 24 hours. On the second day, the cells are collected by centrifugation and washed once with warm PBS, followed by resuspending into culture medium with IMDM without phenol red (Gibco) supplemented with 2.5% charcoal-stripped FBS (Gibo) without phenol red. After culturing for 48 hours, the cells were collected and centrifuged for 5 minutes at 1000 rpm. The cells were then incubated with AlexaFluro488-labelled anti-ER-α36 antibody SNGmB1 37° C. for different time (1, 2, 4, 6, 24 hours) to allow internalization to occur. The internalization was stopped by putting the cells on ice. Antibody internalization analysis of SNGmB1 by K562 cells was performed by surface fluorescence quenching and measured by MFI as detected by FACS. An anti-anti-AlexaFluro488 antibody was used to quench the AlexaFluro488-labeled SNGmB1 antibody bound on the K562 cell surface.

binding to MCF7 cells (FACS) [1]: specific binding
binding to K562 cells (FACS) [2]: dose-dependent binding
binding to MHCC97H cells (FACS) [3]: specific binding
binding to SKBR3 cells (FACS) [4]: specific binding
competition with SNGmB1 antibody for binding to GV27 peptide / ER-α36 [5]: compete against SNGmB1 antibody
Ka ([6]; listed as SNGmB1-20110709(IgG2b)): 2.12e+06 M⁻¹ s⁻¹
Ka ([6]; listed as SNGmB1-20111117(IgG2b)): 1.76e+06 M⁻¹ s⁻¹
binding to 27-amino acid peptide derived from the F domain of ER-α36 ("peptide") [7]: bind to
B1: SNGmB1: mouse monoclonal anti-ER-α36 antibody (mIgG2b), light chain SEQ ID NO: 16, heavy chain SEQ ID NO: 18 (antibody, listed as Mus musculus)
heavy: QAYLQQSGAELVRPGASVKMSCKASGYTFTSHNMHWIKQTPRQGLEWIGAIHPVNGDTAYNQKFKGKATLTVDKSSSTAYLQLSSLTSEESAVYFCAREGYGSVDYWGQGTTLTVSSAKTTPPSVYPLAPGCGDTTGSSVTLGCLVKGYFPESVTVTWNSGSLSSSVHTFPALLQSGLYTMSSSVTVPSSTWPSQTVTCSVAHPASSTTVDKKLEPSGPISTINPCPPCKECHKCPAPNLEGGPSVFIFPPNIKDVLMISLTPKVTCVVVDVSEDDPDVQISWFVNNVEVHTAQTQTHREDYNSTIRVVSTLPIQHQDWMSGKEFKCKVNNKDLPSPIERTISKIKGLVRAPQVYILPPPAEQLSRKDVSLTCLVVGFNPGDISVEWTSNGHTEENYKDTAPVLDSDGSYFIYSKLNMKTSKWEKTDSFSCNVRHEGLKNYYLKKTISRSPGK
light: ETTVTQSPASLSMTIGEKVTIRCITSTDIDDDMNWYRKKPGQPPKLLISEGNTLRPGVPSRFSSSGYGTDFVFTIENMLSEDVADYYCLQSDNLPLTFGAGTKLELKRADAAPTVSIFPPSSEQLTSGGASVVCFLNNFYPKDINVKWKIDGSERQNGVLNSWTDQDSKDSTYSMSSTLTLTKDEYERHNSYTCEATHKTSTSPIVKSFNRNEC
percentage of internalized antibody (of the bound antibody) [8]: ~75%
